Results on 14 molecules are retold here after patent US5726147A, “Human mutant tissue factor compositions useful as tissue factor antagonists” (priority 1995, dated 1998).

The assay has as its system coagulation in recalcified plasma. As to the kind of experiment: One stage clotting (coagulation) assay of specific functional activity of full-length TF mutants in CHO cell lysates. It is filed as biochemical. The conditions noted are these: for loss of function (reduction in specific functional activity as % of wild-type activity): full-length Ala mutant expressed in CHO cells, cell lysate, coagulant activity normalized to antigen, relative to wild-type TF; for reduction in tissue factor procoagulant cofactor activity when compared to wt-TF: residue substituted at the named position. On the procedure:
The full-length TF mutants prepared above were analyzed for function by coagulation assay. […] Coagulation factor deficient plasmas were purchased from George King Bio-medical. The chromogenic substrate, Spectrozyme FXa, was from American Diagnostica Inc. (Greenwich, Conn.).
An alternative approach was to use a polyvalent antibody purified by affinity for capturing TF followed by detection with the TF8-5G9 monoclonal antibody described above.
Initiation of coagulation by wild-type and mutant TF in recalcified plasma was determined after lysis of cell pellets from 2×10^6 cells/ml for each expressed full-length mutant with 15 mM octyl-glucopyranoside in HBS for 15 minutes at 37 C. followed by a 3-fold dilution.
All data represented are based on at least three independent determinations performed in duplicate.

B1: S39-T40-S42: human tissue factor triple mutant with alanine at positions 39, 40 and 42 (protein, UniProt P13726 33-295, looked up, variant S39A T40A S42A)
Tissue factor: SGTTNTVAAYNLTWKSTNFKTILEWEPKPVNQVYTVQIAAKAGDWKSKCFYTTDTECDLTDEIVKDVKQTYLARVFSYPAGNVESTGSAGEPLYENSPEFTPYLETNLGQPTIQSFEQVGTKVNVTVEDERTLVRRNNTFLSLRDVFGKDLIYTLYYWKSSSSGKKTAKTNTNEFLIDVDKGENYCFSVQAVIPSRTVNRKSTDSPVECMGQEKGEFREIFYIIGAVVFVVIILVIILAISLHKCRKAGVGQSWKENSPLNVS
On to B1, for which the “loss of function (reduction in specific functional activity as % of wild-type activity)” value was 43%.

B2: Val-146: human tissue factor mutant, Val-146 exchanged for alanine (protein, UniProt P13726 33-295, looked up, variant V146A)
Tissue factor: SGTTNTVAAYNLTWKSTNFKTILEWEPKPVNQVYTVQISTKSGDWKSKCFYTTDTECDLTDEIVKDVKQTYLARVFSYPAGNVESTGSAGEPLYENSPEFTPYLETNLGQPTIQSFEQVGTKVNVTVEDERTLVRRNNTFLSLRDAFGKDLIYTLYYWKSSSSGKKTAKTNTNEFLIDVDKGENYCFSVQAVIPSRTVNRKSTDSPVECMGQEKGEFREIFYIIGAVVFVVIILVIILAISLHKCRKAGVGQSWKENSPLNVS
For the molecule B2, the “loss of function (reduction in specific functional activity as % of wild-type activity)” value is recorded as 30-50%.

B3: Tyr-71: human tissue factor mutant, Tyr-71 replaced by alanine (protein, UniProt P13726 33-295, looked up, variant Y71A)
Tissue factor: SGTTNTVAAYNLTWKSTNFKTILEWEPKPVNQVYTVQISTKSGDWKSKCFYTTDTECDLTDEIVKDVKQTALARVFSYPAGNVESTGSAGEPLYENSPEFTPYLETNLGQPTIQSFEQVGTKVNVTVEDERTLVRRNNTFLSLRDVFGKDLIYTLYYWKSSSSGKKTAKTNTNEFLIDVDKGENYCFSVQAVIPSRTVNRKSTDSPVECMGQEKGEFREIFYIIGAVVFVVIILVIILAISLHKCRKAGVGQSWKENSPLNVS
In the case of B3, the “loss of function (reduction in specific functional activity as % of wild-type activity)” value is on record as 98%.

B4: Val-67: human tissue factor mutant, Val-67 replaced by alanine (protein, UniProt P13726 33-295, looked up, variant V67A)
Tissue factor: SGTTNTVAAYNLTWKSTNFKTILEWEPKPVNQVYTVQISTKSGDWKSKCFYTTDTECDLTDEIVKDAKQTYLARVFSYPAGNVESTGSAGEPLYENSPEFTPYLETNLGQPTIQSFEQVGTKVNVTVEDERTLVRRNNTFLSLRDVFGKDLIYTLYYWKSSSSGKKTAKTNTNEFLIDVDKGENYCFSVQAVIPSRTVNRKSTDSPVECMGQEKGEFREIFYIIGAVVFVVIILVIILAISLHKCRKAGVGQSWKENSPLNVS
Take B4: the “loss of function (reduction in specific functional activity as % of wild-type activity)” value was 53%.

B5: Thr-106: human tissue factor mutant, Ala replacement for Thr-106 (protein, UniProt P13726 33-295, looked up, variant T106A)
Tissue factor: SGTTNTVAAYNLTWKSTNFKTILEWEPKPVNQVYTVQISTKSGDWKSKCFYTTDTECDLTDEIVKDVKQTYLARVFSYPAGNVESTGSAGEPLYENSPEFTPYLEANLGQPTIQSFEQVGTKVNVTVEDERTLVRRNNTFLSLRDVFGKDLIYTLYYWKSSSSGKKTAKTNTNEFLIDVDKGENYCFSVQAVIPSRTVNRKSTDSPVECMGQEKGEFREIFYIIGAVVFVVIILVIILAISLHKCRKAGVGQSWKENSPLNVS
Regarding B5, the “loss of function (reduction in specific functional activity as % of wild-type activity)” value is “more than 50%”.

B6: Asn-199: human tissue factor mutant, Asn-199 replaced by alanine (protein, UniProt P13726 33-295, looked up, variant N199A)
Tissue factor: SGTTNTVAAYNLTWKSTNFKTILEWEPKPVNQVYTVQISTKSGDWKSKCFYTTDTECDLTDEIVKDVKQTYLARVFSYPAGNVESTGSAGEPLYENSPEFTPYLETNLGQPTIQSFEQVGTKVNVTVEDERTLVRRNNTFLSLRDVFGKDLIYTLYYWKSSSSGKKTAKTNTNEFLIDVDKGENYCFSVQAVIPSRTVARKSTDSPVECMGQEKGEFREIFYIIGAVVFVVIILVIILAISLHKCRKAGVGQSWKENSPLNVS
B6: the “loss of function (reduction in specific functional activity as % of wild-type activity)” value is reported as 30-80% and the “reduction in tissue factor procoagulant cofactor activity when compared to wt-TF” value (“reduction … to wt-TF” below) is listed as no less than 75%.

B7: Phe-147: human tissue factor mutant, Phe-147 exchanged for alanine (protein, UniProt P13726 33-295, looked up, variant F147A)
Tissue factor: SGTTNTVAAYNLTWKSTNFKTILEWEPKPVNQVYTVQISTKSGDWKSKCFYTTDTECDLTDEIVKDVKQTYLARVFSYPAGNVESTGSAGEPLYENSPEFTPYLETNLGQPTIQSFEQVGTKVNVTVEDERTLVRRNNTFLSLRDVAGKDLIYTLYYWKSSSSGKKTAKTNTNEFLIDVDKGENYCFSVQAVIPSRTVNRKSTDSPVECMGQEKGEFREIFYIIGAVVFVVIILVIILAISLHKCRKAGVGQSWKENSPLNVS
With B7, the “loss of function (reduction in specific functional activity as % of wild-type activity)” value is on record as 30-50%.

B8: Glu-105: human tissue factor mutant, Ala replacement for Glu-105 (protein, UniProt P13726 33-295, looked up, variant E105A)
Tissue factor: SGTTNTVAAYNLTWKSTNFKTILEWEPKPVNQVYTVQISTKSGDWKSKCFYTTDTECDLTDEIVKDVKQTYLARVFSYPAGNVESTGSAGEPLYENSPEFTPYLATNLGQPTIQSFEQVGTKVNVTVEDERTLVRRNNTFLSLRDVFGKDLIYTLYYWKSSSSGKKTAKTNTNEFLIDVDKGENYCFSVQAVIPSRTVNRKSTDSPVECMGQEKGEFREIFYIIGAVVFVVIILVIILAISLHKCRKAGVGQSWKENSPLNVS
On to B8, for which the “loss of function (reduction in specific functional activity as % of wild-type activity)” value was “more than 50%”.

B9: Val-198: human tissue factor mutant, Val-198 replaced by alanine (protein, UniProt P13726 33-295, looked up, variant V198A)
Tissue factor: SGTTNTVAAYNLTWKSTNFKTILEWEPKPVNQVYTVQISTKSGDWKSKCFYTTDTECDLTDEIVKDVKQTYLARVFSYPAGNVESTGSAGEPLYENSPEFTPYLETNLGQPTIQSFEQVGTKVNVTVEDERTLVRRNNTFLSLRDVFGKDLIYTLYYWKSSSSGKKTAKTNTNEFLIDVDKGENYCFSVQAVIPSRTANRKSTDSPVECMGQEKGEFREIFYIIGAVVFVVIILVIILAISLHKCRKAGVGQSWKENSPLNVS
Consider B9, for which the “loss of function (reduction in specific functional activity as % of wild-type activity)” value is 30-80%.

B10: Arg-200/Lys-201: human tissue factor mutant, Arg-200 and Lys-201 replaced by alanine (protein, UniProt P13726 33-295, looked up, variant R200A K201A)
Tissue factor: SGTTNTVAAYNLTWKSTNFKTILEWEPKPVNQVYTVQISTKSGDWKSKCFYTTDTECDLTDEIVKDVKQTYLARVFSYPAGNVESTGSAGEPLYENSPEFTPYLETNLGQPTIQSFEQVGTKVNVTVEDERTLVRRNNTFLSLRDVFGKDLIYTLYYWKSSSSGKKTAKTNTNEFLIDVDKGENYCFSVQAVIPSRTVNAASTDSPVECMGQEKGEFREIFYIIGAVVFVVIILVIILAISLHKCRKAGVGQSWKENSPLNVS
Take B10: the “loss of function (reduction in specific functional activity as % of wild-type activity)” value is given as 30-80%.

B11: Asp-145: human tissue factor mutant, Asp-145 exchanged for alanine (protein, UniProt P13726 33-295, looked up, variant D145A)
Tissue factor: SGTTNTVAAYNLTWKSTNFKTILEWEPKPVNQVYTVQISTKSGDWKSKCFYTTDTECDLTDEIVKDVKQTYLARVFSYPAGNVESTGSAGEPLYENSPEFTPYLETNLGQPTIQSFEQVGTKVNVTVEDERTLVRRNNTFLSLRAVFGKDLIYTLYYWKSSSSGKKTAKTNTNEFLIDVDKGENYCFSVQAVIPSRTVNRKSTDSPVECMGQEKGEFREIFYIIGAVVFVVIILVIILAISLHKCRKAGVGQSWKENSPLNVS
Take B11: the “loss of function (reduction in specific functional activity as % of wild-type activity)” value is listed as 30-50%.

B12: Ser-16: full-length human tissue factor mutant, Ser-16 replaced by alanine (protein, UniProt P13726 1-295, looked up, variant S16A)
chain: METPAWPRVPRPETAVARTLLLGWVFAQVAGASGTTNTVAAYNLTWKATNFKTILEWEPKPVNQVYTVQISTKSGDWKSKCFYTTDTECDLTDEIVKDVKQTYLARVFSYPAGNVESTGSAGEPLYENSPEFTPYLETNLGQPTIQSFEQVGTKVNVTVEDERTLVRRNNTFLSLRDVFGKDLIYTLYYWKSSSSGKKTAKTNTNEFLIDVDKGENYCFSVQAVIPSRTVNRKSTDSPVECMGQEKGEFREIFYIIGAVVFVVIILVIILAISLHKCRKAGVGQSWKENSPLNVS
modifications: full-length
notes: full-length human tissue factor mutant, Ser-16 replaced by alanine
On to B12, for which the “loss of function (reduction in specific functional activity as % of wild-type activity)” value is “more than 70%” and the “reduction … to wt-TF” value was no less than 75%.

B13: Thr-17: full-length human tissue factor mutant, Thr-17 replaced by alanine (protein, UniProt P13726 1-295, looked up, variant T17A)
chain: METPAWPRVPRPETAVARTLLLGWVFAQVAGASGTTNTVAAYNLTWKSANFKTILEWEPKPVNQVYTVQISTKSGDWKSKCFYTTDTECDLTDEIVKDVKQTYLARVFSYPAGNVESTGSAGEPLYENSPEFTPYLETNLGQPTIQSFEQVGTKVNVTVEDERTLVRRNNTFLSLRDVFGKDLIYTLYYWKSSSSGKKTAKTNTNEFLIDVDKGENYCFSVQAVIPSRTVNRKSTDSPVECMGQEKGEFREIFYIIGAVVFVVIILVIILAISLHKCRKAGVGQSWKENSPLNVS
modifications: full-length
notes: full-length human tissue factor mutant, Thr-17 replaced by alanine
Turning to B13, the “loss of function (reduction in specific functional activity as % of wild-type activity)” value is reported as “more than 70%” and the “reduction … to wt-TF” value is no less than 75%.

B14: Phe-19: full-length human tissue factor mutant, Phe-19 replaced by alanine (protein, UniProt P13726 1-295, looked up, variant F19A)
chain: METPAWPRVPRPETAVARTLLLGWVFAQVAGASGTTNTVAAYNLTWKSTNAKTILEWEPKPVNQVYTVQISTKSGDWKSKCFYTTDTECDLTDEIVKDVKQTYLARVFSYPAGNVESTGSAGEPLYENSPEFTPYLETNLGQPTIQSFEQVGTKVNVTVEDERTLVRRNNTFLSLRDVFGKDLIYTLYYWKSSSSGKKTAKTNTNEFLIDVDKGENYCFSVQAVIPSRTVNRKSTDSPVECMGQEKGEFREIFYIIGAVVFVVIILVIILAISLHKCRKAGVGQSWKENSPLNVS
modifications: full-length
notes: full-length human tissue factor mutant, Phe-19 replaced by alanine
As for B14, the “loss of function (reduction in specific functional activity as % of wild-type activity)” value was “more than 70%”.
